Source: patent US20220267441A1 (VOR BIOPHARMA, published 2022)
Like-named read-outs stand apart in the source and are kept apart here.

T1: purified human CD45 ectodomain (human CD45RABC antigen) (human, UniProt P08575 26-577)
T1 construct: also called hCD45
T1 sequence: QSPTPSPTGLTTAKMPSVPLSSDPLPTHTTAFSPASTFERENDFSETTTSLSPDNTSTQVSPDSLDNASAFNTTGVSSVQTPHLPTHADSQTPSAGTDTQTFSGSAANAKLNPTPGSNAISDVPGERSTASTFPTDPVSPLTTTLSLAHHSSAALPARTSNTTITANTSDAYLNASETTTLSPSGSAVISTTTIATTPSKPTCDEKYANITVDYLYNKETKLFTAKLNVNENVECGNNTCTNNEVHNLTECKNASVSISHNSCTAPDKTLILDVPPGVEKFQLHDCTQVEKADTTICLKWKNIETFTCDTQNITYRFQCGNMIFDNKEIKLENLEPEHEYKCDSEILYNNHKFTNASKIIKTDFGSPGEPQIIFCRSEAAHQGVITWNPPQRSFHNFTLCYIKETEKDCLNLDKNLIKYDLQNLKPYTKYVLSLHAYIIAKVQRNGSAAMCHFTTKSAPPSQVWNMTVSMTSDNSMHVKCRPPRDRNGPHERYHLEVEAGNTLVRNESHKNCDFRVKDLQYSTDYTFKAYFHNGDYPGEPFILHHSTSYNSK

T2: cynomolgus CD45 on live cells (primary cynomolgus PBMCs) (cynomolgus monkey)
T2 construct: Endogenous CD45 on PBMCs; also called cyno CD45; Cyno PBMC
T2 chain: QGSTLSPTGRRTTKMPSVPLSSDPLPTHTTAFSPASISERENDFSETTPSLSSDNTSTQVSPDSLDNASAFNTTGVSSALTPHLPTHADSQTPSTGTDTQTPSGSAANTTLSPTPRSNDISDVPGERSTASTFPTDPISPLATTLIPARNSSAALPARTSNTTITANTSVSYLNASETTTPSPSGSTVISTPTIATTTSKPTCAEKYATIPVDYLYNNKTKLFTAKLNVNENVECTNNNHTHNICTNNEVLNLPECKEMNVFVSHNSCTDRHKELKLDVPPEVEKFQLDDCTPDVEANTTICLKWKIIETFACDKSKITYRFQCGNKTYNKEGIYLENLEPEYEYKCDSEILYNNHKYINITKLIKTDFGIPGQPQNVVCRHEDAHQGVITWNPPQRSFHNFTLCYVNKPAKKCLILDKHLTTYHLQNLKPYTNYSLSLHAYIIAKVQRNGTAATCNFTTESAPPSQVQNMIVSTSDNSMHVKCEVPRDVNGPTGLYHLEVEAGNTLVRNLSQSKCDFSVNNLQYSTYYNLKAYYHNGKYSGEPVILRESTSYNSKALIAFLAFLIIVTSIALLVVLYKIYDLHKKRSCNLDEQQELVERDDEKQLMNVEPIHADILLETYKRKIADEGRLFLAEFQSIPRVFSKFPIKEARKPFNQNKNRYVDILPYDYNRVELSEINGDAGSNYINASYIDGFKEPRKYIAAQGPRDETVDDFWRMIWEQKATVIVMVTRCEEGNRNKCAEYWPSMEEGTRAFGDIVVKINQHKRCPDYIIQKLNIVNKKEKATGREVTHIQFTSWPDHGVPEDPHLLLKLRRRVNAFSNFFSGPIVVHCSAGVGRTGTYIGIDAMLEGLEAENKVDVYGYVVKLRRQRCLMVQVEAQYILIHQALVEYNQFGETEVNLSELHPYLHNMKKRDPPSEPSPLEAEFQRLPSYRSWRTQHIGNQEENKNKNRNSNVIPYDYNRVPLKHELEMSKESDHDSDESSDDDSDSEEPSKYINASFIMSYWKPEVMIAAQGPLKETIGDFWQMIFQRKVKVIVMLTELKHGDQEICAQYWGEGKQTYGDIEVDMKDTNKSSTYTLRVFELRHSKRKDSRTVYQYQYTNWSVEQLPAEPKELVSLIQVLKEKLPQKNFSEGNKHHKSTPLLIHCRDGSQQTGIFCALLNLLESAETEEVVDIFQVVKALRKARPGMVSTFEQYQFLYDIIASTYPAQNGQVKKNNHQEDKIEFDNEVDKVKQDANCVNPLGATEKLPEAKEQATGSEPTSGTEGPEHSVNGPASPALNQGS

T3: human CD45 on live cells (REH-1 cells, primary human PBMCs) (human, UniProt P08575 26-1306)
T3 construct: Endogenous CD45
T3 sequence: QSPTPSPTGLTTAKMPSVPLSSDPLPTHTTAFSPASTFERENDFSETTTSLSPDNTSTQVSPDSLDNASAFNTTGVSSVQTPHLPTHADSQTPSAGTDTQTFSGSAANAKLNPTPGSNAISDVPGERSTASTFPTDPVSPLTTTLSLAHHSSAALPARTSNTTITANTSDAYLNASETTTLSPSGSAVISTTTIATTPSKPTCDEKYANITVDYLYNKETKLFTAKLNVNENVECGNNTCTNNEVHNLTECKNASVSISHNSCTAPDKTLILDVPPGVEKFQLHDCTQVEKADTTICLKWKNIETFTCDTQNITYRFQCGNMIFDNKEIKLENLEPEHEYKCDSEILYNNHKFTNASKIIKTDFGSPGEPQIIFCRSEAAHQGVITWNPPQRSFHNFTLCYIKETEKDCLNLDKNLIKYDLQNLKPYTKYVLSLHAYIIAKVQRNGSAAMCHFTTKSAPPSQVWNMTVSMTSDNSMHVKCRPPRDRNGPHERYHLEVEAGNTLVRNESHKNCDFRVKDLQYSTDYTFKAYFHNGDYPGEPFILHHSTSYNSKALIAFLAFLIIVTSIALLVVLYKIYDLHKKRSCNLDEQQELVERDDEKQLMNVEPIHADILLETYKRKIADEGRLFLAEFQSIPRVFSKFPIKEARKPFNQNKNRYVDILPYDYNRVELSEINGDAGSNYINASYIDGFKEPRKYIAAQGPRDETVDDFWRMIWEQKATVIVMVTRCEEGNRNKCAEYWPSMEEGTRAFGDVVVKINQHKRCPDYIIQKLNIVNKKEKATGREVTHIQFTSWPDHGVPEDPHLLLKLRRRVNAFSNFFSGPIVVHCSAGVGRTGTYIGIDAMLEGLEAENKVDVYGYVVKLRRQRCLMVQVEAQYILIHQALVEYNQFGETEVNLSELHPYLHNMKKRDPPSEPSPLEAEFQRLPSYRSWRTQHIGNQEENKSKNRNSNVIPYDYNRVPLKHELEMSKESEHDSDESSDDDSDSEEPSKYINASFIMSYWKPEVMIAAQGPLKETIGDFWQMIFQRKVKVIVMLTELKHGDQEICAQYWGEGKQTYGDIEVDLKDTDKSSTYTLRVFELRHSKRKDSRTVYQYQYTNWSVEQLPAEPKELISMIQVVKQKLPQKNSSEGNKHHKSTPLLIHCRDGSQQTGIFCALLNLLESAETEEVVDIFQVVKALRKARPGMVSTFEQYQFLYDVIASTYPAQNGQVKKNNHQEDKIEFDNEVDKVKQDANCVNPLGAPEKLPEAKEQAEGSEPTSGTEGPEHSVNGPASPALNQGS


Assays:
[1] = target: T1, purified human CD45 ectodomain (human …); test: BLI (Octet Red96), IgG on anti-human Fc sensor, 50 nM CD45 ectodomain, 1:1 fit
Procedure: Antibody binding studies were performed at 25° C. in 1× PBS supplemented with 0.1% w/v bovine serum albumin with a Pall ForteBio Octet Red96 using biolayer interferometry (BLI).
The apparent monovalent affinity (KD), apparent association rate (KON), and apparent dissociation rate (KOFF) were determined by local full fitting with a 1:1 binding model as calculated by ForteBio data analysis software version 10 of each IgG to purified human, cynomolgus or rhesus CD45 ectodomain.

[2] = target: T2, cynomolgus CD45 on live cells (primary …); test: flow cytometry on PBMCs; cyno EC50 against human EC50
Procedure: (§1) To this end, primary human or cynomolgus (cyno) peripheral blood mononuclear cells (PBMCs) in cell culture media were incubated with titrated doses of the anti-CD45 antibodies overnight at 37° C. […] Bound anti-CD45 antibody was detected with fluorescently labeled AF488 anti-human IgG secondary antibody using flow cytometry. IC50s were determined by fitting the data using [sequence] […] An Isotype IgG was used as a control.

[3] = target: T3, human CD45 on live cells (REH-1 cells, …); test: flow cytometry on human PBMCs, overnight 37 C, AF488 anti-human IgG
Procedure: (§2) To this end, primary human or cynomolgus (cyno) peripheral blood mononuclear cells (PBMCs) in cell culture media were incubated with titrated doses of the anti-CD45 antibodies overnight at 37° C. […] Bound anti-CD45 antibody was detected with fluorescently labeled AF488 anti-human IgG secondary antibody using flow cytometry. IC50s were determined by fitting the data using [sequence] PRISM. An Isotype IgG was used as a control.

[4] = target: T2, cynomolgus CD45 on live cells (primary …); test: flow cytometry on PBMCs; cyno EC50 against human EC50
Procedure: as §2

[5] = target: T1, purified human CD45 ectodomain (human …); test: BLI (Octet Red96), antibody on anti-human Fc sensor, 100 nM human CD45 ectodomain, 1:1 fit
Procedure: Briefly, antibody binding studies were performed at 25° C. in 1× PBS supplemented with 0.1% w/v bovine serum albumin with a PALL FORTEBIO OCTET RED96 using biolayer interferometry (BLI).
The apparent monovalent affinity (KD), apparent association rate (KON), and apparent dissociation rate (KDIS or KOFF) were determined by local full fitting with a 1:1 binding model as calculated by FORTEBIO data analysis software version 10.

[6] = target: T2, cynomolgus CD45 on live cells (primary …); test: flow cytometry on cynomolgus PBMCs, overnight 37 C, AF488 anti-human IgG
Procedure: as §1

[7] = target: T3, human CD45 on live cells (REH-1 cells, …); test: flow cytometry on human PBMCs, overnight 37 C, AF488 anti-human IgG; remark: listed apart in the source
Procedure: as §1

[8] = target: T2, cynomolgus CD45 on live cells (primary …); test: flow cytometry on cynomolgus PBMCs, overnight 37 C, AF488 anti-human IgG
Procedure: as §2

Row | Binder | Kd [1] | koff [1] | kon [1] | further results
1 | Antibody 4 (Ab4) (antibody, V domains shown) VH: EVQLVESGGGLVQPGGSLRLSCAASGFTFEAYSMNWVRQAPGKGLEWVSYISLSGATIHYADSVKGRFTISRDNAKNSLYLQMNSLRAEDTAVYYCARGGQYYYTSSDYGEVAFDIWGQGTMVTVSS VL: DIVMTQSPLSLPVTPGEPASISCRSSQSLVSNGYNYLDWYLQKPGQSPQLLIYFGSSRASGVPDRFSGSGSGTDFTLKISRVEAEDVGVYYCMQRRRTPWSFGGGTKVEIK | 0.0139 nM | 3.28e-06 s⁻¹ | 236000 M⁻¹ s⁻¹ | –
2 | Antibody 3 (Ab3) (antibody, V domains shown) VH: QVQLVESGGGLVKPGGSLRLSCAASGFTFGGYSMNWVRQAPGKGLEWVSYISISGATITYADSVKGRFTISRDNAKNSLYLQMNSLRAEDTAVYYCARGGQYYYDSSDYGEVAFDIWGQGTMVTVSS VL: DIVMTQSPLSLPVTPGEPASISCRSSQSLVSNGYNYLDWYLQKPGQSPQLLIYFGSSRASGVPDRFSGSGSGTDFTLKISRVEAEDVGVYYCMQRRRTPPFTFGGGTKVEIK | 0.866 nM | 0.000225 s⁻¹ | 260000 M⁻¹ s⁻¹ | –
3 | Antibody 7 (Ab7) (antibody, V domains shown, Human IgG: Ab3 with the Asn to Ser substitution in CDR-L1) VH: QVQLVESGGGLVKPGGSLRLSCAASGFTFGGYSMNWVRQAPGKGLEWVSYISISGATITYADSVKGRFTISRDNAKNSLYLQMNSLRAEDTAVYYCARGGQYYYDSSDYGEVAFDIWGQGTMVTVSS VL: DIVMTQSPLSLPVTPGEPASISCRSSQSLVSSGYNYLDWYLQKPGQSPQLLIYFGSSRASGVPDRFSGSGSGTDFTLKISRVEAEDVGVYYCMQRRRTPPFTFGGGTKVEIK | 2.33 nM | 0.000615 s⁻¹ | 264000 M⁻¹ s⁻¹ | –
4 | Antibody 5 (Ab5) (antibody, V domains shown, Human IgG: Ab4 with the Asn to Ser substitution in CDR-L1) VH: EVQLVESGGGLVQPGGSLRLSCAASGFTFEAYSMNWVRQAPGKGLEWVSYISLSGATIHYADSVKGRFTISRDNAKNSLYLQMNSLRAEDTAVYYCARGGQYYYTSSDYGEVAFDIWGQGTMVTVSS VL: DIVMTQSPLSLPVTPGEPASISCRSSQSLVSSGYNYLDWYLQKPGQSPQLLIYFGSSRASGVPDRFSGSGSGTDFTLKISRVEAEDVGVYYCMQRRRTPWSFGGGTKVEIK | 0.144 nM | 3.36e-05 s⁻¹ | 233000 M⁻¹ s⁻¹ | –
5 | Antibody 6 (Ab6) (antibody, V domains shown) VH: EVQLVESGGGLVQPGGSLRLSCAASGFTFEAYSMNWVRQAPGKGLEWVSYISLSGATIHYADSVKGRFTISRDNAKNSLYLQMNSLRAEDTAVYYCARGGQYYYTSSDYGEVAFDIWGQGTLVTVSS VL: DIVLTQSPLSLPVTPGEPASISCRSSQSLVSSGYNYLDWYLQKPGQSPQLLIYFGSSRASGVPDRFSGSGSGTDFTLKISRVEAEDVGVYYCMQRRRTPWSFGGGTKVEIK | 0.0716 nM | 1.73e-05 s⁻¹ | 242000 M⁻¹ s⁻¹ | –
6 | Antibody 2 (Ab2) (antibody, V domains shown) VH: EVQLVESGGGLVQPGGSLRLSCAASGFTFEAYSMNWVRQAPGKGLEWVSYISLSGATIHYADSVKGRFTISRDNAKNSLYLQMNSLRAEDTAVYYCARGGQYYYDSSDYGEVAFDIWGQGTMVTVSS VL: DIVMTQSPLSLPVTPGEPASISCRSSQSLVSNGYNYLDWYLQKPGQSPQLLIYFGSSRASGVPDRFSGSGSGTDFTLKISRVEAEDVGVYYCMQRRRTPWSFGGGTKVEIK | 0.115 nM | 2.8e-05 s⁻¹ | 245000 M⁻¹ s⁻¹ | –
7 | Antibody A (AbA) (antibody, V domains shown, also called humanized clone AbA) VH: EVQLLESGGGLVQPGGSLRLSCAASGFTFNNYWMTWVRQAPGKGLEWVSSISSSGGSIYYPDRVKGRFTISRDNSKNTLYLQMNSLRAEDTAVYYCARDERWAGAMDAWGQGTTVTVSS VL: DIQMTQSPSSLSASVGDRVTITCKASQNINKNLDWYQQKPGKAPKLLIYETNNLQTGVPSRFSGSGSGTDFTLTISSLQPEDFATYYCYQHNSRFTFGQGTKLEIK | – | – | – | Fold Cyno vs Human (EC50) [2]: 2.2 fold; EC50 [3]: 0.78 nM; Fold Cyno v/s Human (EC50) [4]: 1.8 fold; Kd [5]: 3.6 nM; koff [5]: 0.000181 s⁻¹; kon [5]: 50300 M⁻¹ s⁻¹; EC50 [6]: 1.25 nM; EC50 [7]: 0.58 nM; EC50 [8]: 1.37 nM
